Measured values taken from patent US20120135912A1 (PERSEID THERAPEUTICS, published 2012).
Positions count from the first letter of the chain named.

How the values were obtained:
[1] = biological target: T1, human LPAM-1-Fc (alpha4-Fc/beta7-Fc heterodimer) (human); experiment: SPR (BIACORE) as in Example 12, polypeptide purified from E. coli as analyte on captured LPAM-1-Fc; KD drawn as bars (Example 20)
T1 construct: Soluble heterodimer from CHO cells, Protein A purified

[2] = biological target: T2, human VLA4-Fc (alpha4-Fc/beta1-Fc heterodimer) (human); experiment: SPR (BIACORE) as in Example 12, polypeptide purified from E. coli as analyte on captured VLA4-Fc; the black bar is broken and the value is written over it (Example 20)
T2 construct: Soluble heterodimer from CHO cells, Protein A purified; also called VLA-Fc
T2 sequence (chain, as listed by the source limits assumed, form in doubt, chain 1 of 2): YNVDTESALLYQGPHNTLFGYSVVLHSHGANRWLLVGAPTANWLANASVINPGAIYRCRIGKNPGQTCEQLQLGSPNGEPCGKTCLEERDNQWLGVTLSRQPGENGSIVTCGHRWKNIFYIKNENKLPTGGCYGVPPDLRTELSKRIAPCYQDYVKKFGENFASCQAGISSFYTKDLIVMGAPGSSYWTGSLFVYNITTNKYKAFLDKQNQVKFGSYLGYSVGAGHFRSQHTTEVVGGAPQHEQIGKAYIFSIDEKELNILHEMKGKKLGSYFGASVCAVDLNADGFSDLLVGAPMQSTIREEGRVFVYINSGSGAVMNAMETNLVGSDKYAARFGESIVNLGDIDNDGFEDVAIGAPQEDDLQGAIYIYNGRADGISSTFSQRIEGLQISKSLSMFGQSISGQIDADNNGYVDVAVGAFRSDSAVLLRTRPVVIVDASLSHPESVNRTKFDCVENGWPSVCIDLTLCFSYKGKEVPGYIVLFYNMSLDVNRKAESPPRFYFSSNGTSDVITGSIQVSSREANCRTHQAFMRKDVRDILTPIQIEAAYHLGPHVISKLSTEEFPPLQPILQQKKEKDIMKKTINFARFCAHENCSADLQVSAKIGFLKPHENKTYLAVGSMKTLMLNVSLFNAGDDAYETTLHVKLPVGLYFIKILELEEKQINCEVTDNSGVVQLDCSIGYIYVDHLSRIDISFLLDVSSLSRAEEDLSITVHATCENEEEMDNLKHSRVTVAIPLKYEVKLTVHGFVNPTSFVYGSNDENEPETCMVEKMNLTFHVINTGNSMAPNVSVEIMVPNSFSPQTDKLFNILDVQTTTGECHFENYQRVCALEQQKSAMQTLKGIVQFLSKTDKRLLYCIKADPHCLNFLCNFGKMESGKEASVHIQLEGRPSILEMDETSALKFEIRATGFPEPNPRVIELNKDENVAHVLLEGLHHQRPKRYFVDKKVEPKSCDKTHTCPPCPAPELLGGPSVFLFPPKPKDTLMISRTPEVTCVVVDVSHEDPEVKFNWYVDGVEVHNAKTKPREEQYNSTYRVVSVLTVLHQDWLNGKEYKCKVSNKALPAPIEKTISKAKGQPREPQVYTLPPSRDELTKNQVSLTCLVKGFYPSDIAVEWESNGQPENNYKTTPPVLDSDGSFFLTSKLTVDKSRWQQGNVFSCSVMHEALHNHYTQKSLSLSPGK
T2 sequence (chain, as listed by the source limits assumed, form in doubt, chain 2 of 2): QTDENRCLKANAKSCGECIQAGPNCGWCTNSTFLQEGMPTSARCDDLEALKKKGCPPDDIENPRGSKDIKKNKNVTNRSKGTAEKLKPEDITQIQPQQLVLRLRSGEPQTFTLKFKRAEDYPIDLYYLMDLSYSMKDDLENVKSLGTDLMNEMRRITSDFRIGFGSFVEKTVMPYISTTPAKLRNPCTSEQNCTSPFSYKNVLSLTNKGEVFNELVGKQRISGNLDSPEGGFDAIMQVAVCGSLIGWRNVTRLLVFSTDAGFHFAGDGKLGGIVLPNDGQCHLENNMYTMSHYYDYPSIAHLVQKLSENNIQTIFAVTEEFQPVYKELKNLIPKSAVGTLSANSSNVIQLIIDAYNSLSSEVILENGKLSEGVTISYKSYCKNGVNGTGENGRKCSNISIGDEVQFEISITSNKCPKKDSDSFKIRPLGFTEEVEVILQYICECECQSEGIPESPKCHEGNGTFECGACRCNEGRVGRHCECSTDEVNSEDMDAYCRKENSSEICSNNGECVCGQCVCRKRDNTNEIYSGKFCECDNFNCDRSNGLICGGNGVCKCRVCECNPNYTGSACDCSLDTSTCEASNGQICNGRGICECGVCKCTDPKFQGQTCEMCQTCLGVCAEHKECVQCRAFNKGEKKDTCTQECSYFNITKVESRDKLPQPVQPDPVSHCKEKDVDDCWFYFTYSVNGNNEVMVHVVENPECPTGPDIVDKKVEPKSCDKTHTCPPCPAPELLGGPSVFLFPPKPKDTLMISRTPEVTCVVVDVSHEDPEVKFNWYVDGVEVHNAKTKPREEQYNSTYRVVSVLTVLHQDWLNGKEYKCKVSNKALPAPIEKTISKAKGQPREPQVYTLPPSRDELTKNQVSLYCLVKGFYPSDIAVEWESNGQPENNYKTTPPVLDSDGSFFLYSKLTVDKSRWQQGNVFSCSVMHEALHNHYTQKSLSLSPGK

[3] = biological target: T2, human VLA4-Fc (alpha4-Fc/beta1-Fc …); experiment: ELISA, VLA4-Fc coated, 1 mM MnCl2; from EC50 values
Procedure: The relative binding affinities of various 2D-VCAM-1 variants to immobilized VLA4-Fc (α4-β1-Fc) heterodimer, relative to a control protein (e.g., Q38L-2D-VCAM-1 or to human 2D-VCAM-1), were deter using a solid-phase ELISA assay. MAXISORP™ ELISA plates (NUNC) were coated overnight at 4° C. with 50 ul VLA4-Fc heterodimer, 2 ug/ml in TBS-M (TBS (25 mM Tris-HCl pH 7.5, 150 mM NaCl) with 1 mM MnCl2), washed with TBS-T (TBS with 0.05% TWEEN-20), blocked with 200 ul 3% milk in TBS-M for 1 h at room temperature, and washed again with TBS-T. A four-fold dilution series of the purified 2D-VCAM variants to be assayed was made in COSTAR U-bottom plates in TBS-TMC (TBS with 0.05% Tween-20, 1 mM MnCl2, and 1% casein; Sigma) with a starting concentration of 8.2 uM (200 ug/ml). The dilution series was transferred into the ELISA plate which was incubated at room temperature for 2 h and subsequently washed with TBS-T. Bound 2D-VCAM protein was detected by incubation with 0.5 ug/ml of biotinylated anti-human VCAM antibody (R&D Systems, Catalog No. BAF809) in TBS-TMC for 1 h at room temperature followed by a TBS-MT (TBS plus 1 mM MnCl2 and 0.02% TWEEN-20) wash and subsequent incubation with 1:2000 dilution of streptavidin-HRP (BD Biosciences, Catalog No. 554066) in TBS-TMC for 30 min at room temperature. […] Typical development times ranged from […] and development was stopped by addition of 50 ul 2M H₂SO₄ (EM, Catalog No. SX1244-75). […] Fold-improvement in binding was calculated relative to a control protein (e.g., Q38L-2D-VCAM-1 or human 2D-VCAM-1) assayed on the same plate.

[4] = biological target: T1, human LPAM-1-Fc (alpha4-Fc/beta7-Fc …); experiment: ELISA, LPAM-1-Fc coated, 1 mM MnCl2; from EC50 values
Procedure: The relative binding affinities of various 2D-VCAM variant proteins to immobilized LPAM-1-Fc (α4-Fc/β-7-Fc) heterodimer, relative to a control protein (e.g., Q38L-2D-VCAM-1 or human 2D-VCAM-1), were determined using a solid-phase ELISA assay. MAXISORP™ ELISA plates (NUNC) were coated overnight at 4° C. with 50 ul LPAM-1-Fc heterodimer (2 ug/ml in TBS-M, TBS (25 mM TRIS-HCl pH 7.5, 150 mM NaCl with 1 mM MnCl2), washed with TBS-T (TBS with 0.05% Tween-20), blocked with 200 ul 3% milk in TBS-M for 1 hr at room temperature, and washed again with TBS-T. A four-fold dilution series of the purified 2D-VCAM-1 variants to he assayed was made in COSTAR U-bottom plates in TBS-TMC (TBS with 0.05% Tween-20, 1 mM MnCl2 and 1% casein; Sigma) with a starting concentration of 8.2 uM (200 ug/ml). The dilution, series were transferred into the ELISA plate which was incubated at room temperature for 2 h and subsequently washed with TBS-T. Bound 2D-VCAM-1 protein was detected by incubation with 0.5 ug/ml of biotinylated anti-human VCAM antibody (R&D Systems, Catalog No. BAF809) in TBS-TMC for 1 h at room temperature followed by a TBS-T wash and subsequent incubation with 1:2000 dilution of streptavidin-HRP (BD Biosciences, Catalog No. 554066) in TBS-TMC for 30 min at room temperature. […] Typical development times ranged from 5-15 min and development was stopped by addition of 50 ul 2M H₂SO₄ (EM, Catalog No. SX1244-75). […] Fold-improvement in binding was calculated relative to a control protein (Q38L-2D-VCAM-1) assayed on the same plate.

[5] = biological target: T2, human VLA4-Fc (alpha4-Fc/beta1-Fc …); experiment: SPR (BIACORE), VLA4-Fc captured by anti-human IgG, 1 mM MnCl2, 1:1 Langmuir
Procedure: (§1) The kinetic 2D-VCAM-1 assay measures binding kinetics of a dimeric ligand (e.g., VLA-Fc fusion protein or LPAM-1-Fc fusion protein) coated to sensor chips and monomeric analyte (e.g., 2D-VCAM-1 variant polypeptides) in the mobile phase. Goat anti-human IgG antibody (Jackson ImmunoResearch, Catalog No. 105-005-098) was immobilized on CM-5 sensor chips (GE Healthcare, Catalog No. BR-1000-14) according to the manufacturer's protocol. Antibody was diluted to 30 μg/ml in immobilization buffer (10 mM sodium acetate, pH 5.0 (GE Healthcare, Catalog No. BR-1003-51)). […] Un-reacted sites were quenched with 35 μl of 1 M ethanolamine-HCl pH 8.5 (GE Healthcare, Catalog No. BR-1000-50). This procedure typically yielded 15,000 response units (RU) of coupled antibody. VLA4-Fc or LPAM-1-Fc, prepared as described in Examples 3 and 4, respectively, were bound to antibody-coated sensor chips by injection of 20 μl of ligand solution (20 μg/ml protein in HBS-P-Mn buffer at a flow rate of 10 μl/min). Ligand capture levels were typically 200-300 RU. 2D-VCAM-1 variant polypeptides were diluted in HBS-P-Mn and flowed over ligand-coated sensor chips for 2 min at 30 μl/min, followed by 5 min incubation with in HBS-P-Mn containing no protein at the same flow rate. For 2D-VCAM-1 variant polypeptides having very slow dissociation rates from VLA4-Fc or LPAM-1-Fc, kinetic assays were also conducted using longer dissociation times (e.g., 20 min). Rmax signal levels for 2D-VCAM-1 variant polypeptides ranged from approximately 5-25 RU. Regeneration between cycles was performed by 200 sec incubation with 10 mM glycine buffer (pH 1.7) at 50 μl/min. New chips were subjected to 4-5 cycles of capture/binding/regeneration prior to use in actual experiments. Data from a reference cell containing goat anti-human IgG capture antibody alone was subtracted from data obtained from flow cells containing captured VLA4-Fc or LPAM-1-Fc. Typically, 8 dilutions of 2D-VCAM-1 variant polypeptides ranging from 150 nM to 0.069 nM were analyzed against a blank reference (HBS-P-Mn buffer alone).

[6] = biological target: T1, human LPAM-1-Fc (alpha4-Fc/beta7-Fc …); experiment: SPR (BIACORE), LPAM-1-Fc captured by anti-human IgG, 1 mM MnCl2, 1:1 Langmuir
Procedure: as §1

[7] = biological target: T3, human VLA4 (integrin alpha4beta1) on the surface of U937 cells (human, UniProt P13612 34-1032; P05556 21-798); experiment: static cell adhesion assay: calcein-labelled U937 cells on wells coated with 7D-VCAM-1, buffer with 1 mM MnCl2 (Example 13)
T3 construct: whole, on cells; Endogenous VLA4 of U937 cells; assay buffer held 1 mM each of CaCl2, MgCl2 and MnCl2; also called cell-surface human VLA4
T3 sequence (P13612 34-1032, chain 1 of 2): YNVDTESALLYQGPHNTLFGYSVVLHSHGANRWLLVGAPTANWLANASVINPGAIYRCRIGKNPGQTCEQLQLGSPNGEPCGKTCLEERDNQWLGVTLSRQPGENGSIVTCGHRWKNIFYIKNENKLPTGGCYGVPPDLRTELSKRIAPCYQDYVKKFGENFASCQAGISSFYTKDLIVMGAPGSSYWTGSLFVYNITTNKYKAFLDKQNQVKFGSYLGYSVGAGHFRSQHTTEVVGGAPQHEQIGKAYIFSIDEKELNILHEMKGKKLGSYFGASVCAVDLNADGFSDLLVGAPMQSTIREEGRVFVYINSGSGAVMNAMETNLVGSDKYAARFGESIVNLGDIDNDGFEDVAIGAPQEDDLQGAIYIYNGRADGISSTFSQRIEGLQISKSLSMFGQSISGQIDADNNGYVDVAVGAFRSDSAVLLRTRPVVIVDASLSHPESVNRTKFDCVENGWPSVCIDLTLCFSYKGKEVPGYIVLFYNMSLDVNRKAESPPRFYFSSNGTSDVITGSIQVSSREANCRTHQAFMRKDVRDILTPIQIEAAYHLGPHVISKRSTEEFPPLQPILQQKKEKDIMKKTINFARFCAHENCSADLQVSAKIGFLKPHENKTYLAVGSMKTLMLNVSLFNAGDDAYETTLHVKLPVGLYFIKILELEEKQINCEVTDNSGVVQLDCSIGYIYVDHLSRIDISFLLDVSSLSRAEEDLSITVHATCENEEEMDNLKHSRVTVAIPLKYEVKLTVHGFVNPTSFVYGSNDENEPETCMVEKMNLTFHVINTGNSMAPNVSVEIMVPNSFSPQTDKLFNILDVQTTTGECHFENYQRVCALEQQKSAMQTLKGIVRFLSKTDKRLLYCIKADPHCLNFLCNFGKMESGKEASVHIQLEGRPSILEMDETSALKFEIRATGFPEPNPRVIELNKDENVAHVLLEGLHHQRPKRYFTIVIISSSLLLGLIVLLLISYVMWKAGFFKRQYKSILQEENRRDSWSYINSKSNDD
T3 sequence (P05556 21-798, chain 2 of 2): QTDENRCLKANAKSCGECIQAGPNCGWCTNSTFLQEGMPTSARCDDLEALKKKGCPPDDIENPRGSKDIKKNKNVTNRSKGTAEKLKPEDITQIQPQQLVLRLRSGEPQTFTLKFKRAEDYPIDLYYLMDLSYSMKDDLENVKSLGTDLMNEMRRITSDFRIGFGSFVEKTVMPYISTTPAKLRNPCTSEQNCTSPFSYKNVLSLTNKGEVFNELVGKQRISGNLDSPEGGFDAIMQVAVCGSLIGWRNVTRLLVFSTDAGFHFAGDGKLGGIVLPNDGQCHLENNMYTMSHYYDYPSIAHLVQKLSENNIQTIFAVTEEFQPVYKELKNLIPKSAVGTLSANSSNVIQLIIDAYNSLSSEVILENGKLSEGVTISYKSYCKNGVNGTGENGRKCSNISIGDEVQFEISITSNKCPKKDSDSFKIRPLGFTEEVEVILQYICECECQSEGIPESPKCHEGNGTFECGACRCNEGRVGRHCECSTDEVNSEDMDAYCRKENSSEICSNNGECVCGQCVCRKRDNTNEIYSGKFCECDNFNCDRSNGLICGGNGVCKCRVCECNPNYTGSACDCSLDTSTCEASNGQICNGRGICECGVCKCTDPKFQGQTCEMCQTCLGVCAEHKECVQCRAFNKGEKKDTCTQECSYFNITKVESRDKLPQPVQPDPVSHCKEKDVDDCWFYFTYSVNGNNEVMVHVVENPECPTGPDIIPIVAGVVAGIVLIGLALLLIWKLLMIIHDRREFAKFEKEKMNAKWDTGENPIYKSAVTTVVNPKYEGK
Procedure: Prior to assaying, the U937 cells were re-suspended in labeling buffer (RPMI 1640 culture media without phenol red, 10% FBS; Invitrogen), then labeled with 0.5 μg/ml Calcein-AM at 37° C. for 30 minutes on a rotator. Subsequently, the cells were washed three times with labeling buffer then resuspended at 5×10^6 cells/ml in assay buffer (HEPES CaMgMn buffer: 50 mM HEPES, 150 mM NaCl, 1 mM CaCl₂, 1 mM MgCl₂, 1 mM MnCl2 pH 7.4).
The test compounds (i.e., the 2D-VCAM-1 variant polypeptides) were diluted in dilution buffer and added to VCAM-1-coated plates. […] Plates were spun down at 280×g for 5 minutes with assay buffer decanted by inversion before measuring fluorescence intensity (excitation=485 nm, emission=530 nm) with LJL Analyst HT 96.384 (Molecular Devices, Sunnyvale, Calif.).
FIG. 5 is a graph showing the cell adhesion index for anti-VLA4-antibody (used as a positive control for maximal inhibition of cell adherence), dilution buffer alone (“no treatment”, a control to show maximal cell adherence to the immobilized VCAM-1), 2D-VCAM-1 valiant Clone 46 (SEQ ID NO:12), Q38L-2D-VCAM-1 polypeptide (SEQ ID NO:10), and human 2D-VCAM-1 (SEQ ID NO:2). The cell adhesion index was calculated as (fluorescence intensity, VCAM-coated well)/(fluorescence intensity, non-CAM-1-coated well). […]

T1 sequence (chain, as listed by the source limits assumed, chain 1 of 2): as the sequence (chain, as listed by the source limits assumed, form in doubt, chain 1 of 2) above
T1 sequence (chain, as listed by the source limits assumed, chain 2 of 2): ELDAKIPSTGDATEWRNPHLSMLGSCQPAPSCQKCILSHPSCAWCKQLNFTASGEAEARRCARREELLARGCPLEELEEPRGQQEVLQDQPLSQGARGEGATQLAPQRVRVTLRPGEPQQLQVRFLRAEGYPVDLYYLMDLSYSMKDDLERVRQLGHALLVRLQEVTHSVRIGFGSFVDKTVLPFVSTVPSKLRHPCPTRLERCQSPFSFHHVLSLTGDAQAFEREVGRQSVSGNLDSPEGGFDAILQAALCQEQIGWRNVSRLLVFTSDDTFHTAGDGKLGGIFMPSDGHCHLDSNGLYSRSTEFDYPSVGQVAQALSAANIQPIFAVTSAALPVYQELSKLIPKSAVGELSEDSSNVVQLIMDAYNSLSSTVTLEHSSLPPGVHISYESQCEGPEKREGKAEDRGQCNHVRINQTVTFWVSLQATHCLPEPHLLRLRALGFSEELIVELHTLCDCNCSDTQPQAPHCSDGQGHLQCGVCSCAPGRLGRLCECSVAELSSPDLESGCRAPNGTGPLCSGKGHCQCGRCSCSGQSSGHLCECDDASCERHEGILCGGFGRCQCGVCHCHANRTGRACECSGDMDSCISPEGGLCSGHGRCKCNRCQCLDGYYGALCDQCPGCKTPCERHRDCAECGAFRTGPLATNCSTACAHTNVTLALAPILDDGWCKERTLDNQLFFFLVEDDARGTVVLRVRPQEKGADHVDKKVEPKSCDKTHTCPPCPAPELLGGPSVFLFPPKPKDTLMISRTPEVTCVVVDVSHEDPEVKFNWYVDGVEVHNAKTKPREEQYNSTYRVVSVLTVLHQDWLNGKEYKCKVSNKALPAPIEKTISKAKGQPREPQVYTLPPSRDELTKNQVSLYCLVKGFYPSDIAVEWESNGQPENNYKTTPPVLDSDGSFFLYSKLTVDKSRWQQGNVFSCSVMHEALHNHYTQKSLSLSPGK

B1: R3R5R7 (ligand)
2D-VCAM-1 variant polypeptide: MFKIETTPESRYLAQIGDSVSLTCSTTGCESPLFFWRTLIDSPLNGKVTNEGTTSTLTMNPVSFGNEHSYLCTARCESRKLEKGIQVEIYSFPKDPEIHLSGPLEAGKPITVKCSVADVYPFDRLEIDLLKGDHLMKSQEFLEDADRKSLETKSLEVTFTPVIEDIGKVLVCRAKLHIDEMDSVPTVRQAVKELQVYISP
notes: also called 146R3R5R7
[1]
  binding result: binds
[2]
  Kd: 0.25 nM

B2: 2D-VCAM-1 variant Clone 147 (ligand)
chain: FKIETTPESRYLAQIGDSVSLTCSTTGCESPSFYWRPLLDSPLNGKVTNEGTTSTLTMNPVSFGNEHSYLCTAACESRRLEKGIQVEIYSFPKDPEIHLSGPLEAGKPITVKCSVADVYPFDRLEIDLLKGDHLMKSQEFLEDADRKSLETKSLEVTFTPVIEDIGKVLVCRAKLHIDEMDSVPTVRQAVKELQVYISP
notes: not shown: His tag
[3]
  fold-improvement in binding relative to Q38L-2D-VCAM-1: 11 fold
  fold-improvement in binding relative to human 2D-VCAM-1: 88 fold
[4]
  fold improvement in binding relative to Q38L-2D-VCAM-1: 23 fold

B3: 2D-VCAM-1 variant Clone 150 (ligand)
chain: B2 chain with S32L, Y34F, L38Q, S41A, A74R, R79S
notes: not shown: His tag of the E. coli construct
[3]
  fold-improvement in binding relative to Q38L-2D-VCAM-1: 4 fold
  fold-improvement in binding relative to human 2D-VCAM-1: 32 fold
[4]
  fold improvement in binding relative to Q38L-2D-VCAM-1: 5 fold
[5]
  Kd: 0.417 nM
  binding affinity for VLA4-Fc relative to human 2D-VCAM-1: 36 fold
[6]
  Kd: 31.2 nM
  binding affinity for LPAM-1-Fc relative to human 2D-VCAM-1: 8 fold

B4: recombinant human 7D-VCAM-1 (ligand)
chain: FKIETTPESRYLAQIGDSVSLTCSTTGCESPFFSWRTQIDSPLNGKVTNEGTTSTLTMNPVSFGNEHSYLCTATCESRKLEKGIQVEIYSFPKDPEIHLSGPLEAGKPITVKCSVADVYPFDRLEIDLLKGDHLMKSQEFLEDADRKSLETKSLEVTFTPVIEDIGKVLVCRAKLHIDEMDSVPTVRQAVKELQVYISPKNTVISVNPSTKLQEGGSVTMTCSSEGLPAPEIFWSKKLDNGNLQHLSGNATLTLIAMRMEDSGIYVCEGVNLIGKNRKEVELIVQEKPFTVEISPGPRIAAQIGDSVMLTCSVMGCESPSFSWRTQIDSPLSGKVRSEGTNSTLTLSPVSFENEHSYLCTVTCGHKKLEKGIQVELYSFPRDPEIEMSGGLVNGSSVTVSCKVPSVYPLDRLEIELLKGETILENIEFLEDTDMKSLENKSLEMTFIPTIEDTGKALVCQAKLHIDDMEFEPKQRQSTQTLYVNVAPRDTTVLVSPSSILEEGSSVNMTCLSQGFPAPKILWSRQLPNGELQPLSENATLTLISTKMEDSGVYLCEGINQAGRSRKEVELIIQVTPKDIKLTAFPSESVKEGDTVIISCTCGNVPETWIILKKKAETGDTVLKSIDGAYTIRKAQLKDAGVYECESKNKVGSQLRSLTL
notes: Bought from R&D Systems; also called immobilized VCAM-1; 7 domain form of VCAM-1
[7]
  binding result: binds
